Data published in patent US20180030144A1 (INNATE PHARMA, published 2018).

T1: human CD73 mutant 16 (human, UniProt P21589 27-549)
T1 construct: Transfected in HEK293T cells
T1 chain: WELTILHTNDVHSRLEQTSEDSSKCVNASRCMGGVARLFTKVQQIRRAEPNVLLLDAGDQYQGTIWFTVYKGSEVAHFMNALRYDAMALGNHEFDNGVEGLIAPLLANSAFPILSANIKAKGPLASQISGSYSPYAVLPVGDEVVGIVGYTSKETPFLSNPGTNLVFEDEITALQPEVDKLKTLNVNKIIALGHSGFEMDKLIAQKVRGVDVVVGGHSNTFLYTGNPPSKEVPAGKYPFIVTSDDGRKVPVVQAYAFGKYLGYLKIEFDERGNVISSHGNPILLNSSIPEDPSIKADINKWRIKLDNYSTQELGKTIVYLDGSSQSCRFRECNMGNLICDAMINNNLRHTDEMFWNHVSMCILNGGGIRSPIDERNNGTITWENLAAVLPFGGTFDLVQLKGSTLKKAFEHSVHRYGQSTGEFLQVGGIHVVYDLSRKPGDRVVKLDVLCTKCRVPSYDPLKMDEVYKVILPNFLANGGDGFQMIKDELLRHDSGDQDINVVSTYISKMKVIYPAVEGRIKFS

T2: human CD73 expressed at the cell surface (human, UniProt P21589 27-549)
T2 sequence: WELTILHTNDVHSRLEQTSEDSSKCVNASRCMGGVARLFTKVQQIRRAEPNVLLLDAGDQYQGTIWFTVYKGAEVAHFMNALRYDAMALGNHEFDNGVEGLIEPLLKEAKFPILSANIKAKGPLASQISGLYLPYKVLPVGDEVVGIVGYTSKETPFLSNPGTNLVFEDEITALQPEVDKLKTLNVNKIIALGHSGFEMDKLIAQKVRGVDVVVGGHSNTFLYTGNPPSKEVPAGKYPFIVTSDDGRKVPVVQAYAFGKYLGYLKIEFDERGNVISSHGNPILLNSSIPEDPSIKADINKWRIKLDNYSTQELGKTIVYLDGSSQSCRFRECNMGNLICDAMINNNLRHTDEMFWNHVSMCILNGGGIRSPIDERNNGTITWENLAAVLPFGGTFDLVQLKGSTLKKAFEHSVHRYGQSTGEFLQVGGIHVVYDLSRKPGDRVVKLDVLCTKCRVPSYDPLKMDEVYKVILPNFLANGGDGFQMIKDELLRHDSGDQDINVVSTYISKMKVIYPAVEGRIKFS

B1: antibody 11E1 (antibody, human IgG1, V domains shown)
VH: EIQLQQSGPELVKPGASVKVSCKASGYAFTSYNMYWVKQSHGKSLEWIGYIDPYNGGTSYNQKFKGKATLTVDKSSSTAYMHLNSLTSEDSAVYYCARGYGNYKAWFAYWGQGTLVTVSA
VL: DAVMTQTPKFLLVSAGDRVTITCKASQSVTNDVAWYQQKPGQSPKLLIYYASNRYTGVPDRFTGSGYGTDFTFTISTVQAEDLAVYFCQQDYSSLTFGAGTKLELK
notes: Produced as chimeric human IgG1 with heavy chain N297Q (Kabat EU numbering); also called 1E11
B2: antibody 6E1 (antibody, human IgG1, V domains shown)
VH: EFQLQQSGPELVKPGASVKVSCKASGYAFTSYNMYWVKQSHGKRLEWIGYIDPYNGGSSYNQKFKGKATLTVDKSSSTAYMHLNNLTSEDSAVYYCARGYNNYKAWFAYWGQGTLVTVSA
VL: SIVMTQTPKFLLVSAGDRVTITCKASQSVTNDVAWYQQKPGQSPKLLIYYASNRYTGVPDRFTGSGYGTDFTFTISTMQAEDLAVYFCQQDYSSLTFGAGTKLELK
notes: Produced as chimeric human IgG1 with heavy chain N297Q (Kabat EU numbering)
B3: antibody 3C12 (antibody, human IgG1, V domains shown)
VH: QIQLQQSGPELVKPGASVKVSCKASGYAFASYNMNWVKQSHGKSLDWIGYIDPYNGGSSYNLTFKGKATLTVDKSSTTAYMHLNSLTSEDSAVYYCARGYGNYKAWFAYWGQGTLVTVSA
VL: DVVMTQTPKFLLVSAGDRVTITCKASQSVSNDVAWYQQKPGQSPKLLIYYASTRYTGVPDRFTGSGYGTDFTFTISTVQAEDLAVYFCQQDYSSLTFGAGTKLELKR
notes: Produced as chimeric human IgG1 with heavy chain N297Q (Kabat EU numbering); RTVAAP)

Key:
human CD73 mutant 16 = target: T1, human CD73 mutant 16; assay: flow cytometry, HEK293T transfectants
[1] = target: T2, human CD73 expressed at the cell surface; assay: cell-based or functional assay
[2] = target: T2, human CD73 expressed at the cell surface; assay: flow cytometry titration on HEK293T cells transfected with wild type human CD73, mean of fluorescence

Binder | binding result (human CD73 mutant 16) | EC50 for neutralization of 5'-ectonucleotidase activity, mean over MDA-MB-231, H292 and A375 cells [1] [µg/mL] | EC70 for neutralization of 5'-ectonucleotidase activity, mean over MDA-MB-231, H292 and A375 cells [1] [µg/mL] | EC100 for neutralization of 5'-ectonucleotidase activity, mean over MDA-MB-231, H292 and A375 cells [1] [µg/mL] | EC50 (read off the curve) [2] [µg/mL]
B1 | no binding | 0.1 | 0.15 | 0.52 | –
B2 | no binding | 0.13 | 0.19 | 0.68 | –
B3 | no binding | 0.14 | 0.18 | 0.3 | ~0.2
